This note sets out measurements from US20200199216A1 (KINDRED BIOSCIENCES, published 2020).

Assay [1] addresses T1, canine IL17A (as used at 1 nM in the H1080 cell assay) (canine).
T1 chain: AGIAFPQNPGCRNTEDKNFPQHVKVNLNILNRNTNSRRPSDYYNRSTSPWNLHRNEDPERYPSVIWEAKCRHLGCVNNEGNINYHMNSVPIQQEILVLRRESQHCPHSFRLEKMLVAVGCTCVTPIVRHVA
Nature of the assay: cell-based or functional assay.

For assay [2], the target named is T2, canine IL17F-polyHis (canine, biotinylated in the biosensor assay).
T2 construct: also called IL17F homodimer; not shown: poly-His tag on the C-terminal
T2 chain: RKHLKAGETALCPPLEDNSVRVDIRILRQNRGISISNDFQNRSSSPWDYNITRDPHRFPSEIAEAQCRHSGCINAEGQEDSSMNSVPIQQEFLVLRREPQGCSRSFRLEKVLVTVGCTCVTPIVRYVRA
Nature of the assay: Western blot: SDS-PAGE, PVDF, goat anti-mouse IgG-HRP. The method, then: Canine IL17A-hFc, feline IL17A-polyHis, equine IL17A-polyHis, and canine IL17F-polyHis (0.6 μg) were each separated by SDS-PAGE and the proteins transferred to PVDF membranes. The blots were probed using Clone A, C, D, or E antibody followed by goat anti-mouse IgG-HRP. In this Western analysis, Clone A, C, and E antibodies immunoreacted to canine and equine IL17A, but not to feline IL17A or canine IL17F. Clone D antibody immunoreacted to canine, feline, and equine IL17A, but not to canine IL17F.
(In general: Immunoblotting shows a protein as a band on a membrane.)

Assay [3] concerns the target T3, canine IL4 (biotinylated) (canine, UniProt O77762 25-132, biotinylated).
T3 construct: Used only to capture the IL4R/IL13R-Fc fusions on streptavidin sensor tips; also called Biotinylated canine IL4
T3 sequence (looked up): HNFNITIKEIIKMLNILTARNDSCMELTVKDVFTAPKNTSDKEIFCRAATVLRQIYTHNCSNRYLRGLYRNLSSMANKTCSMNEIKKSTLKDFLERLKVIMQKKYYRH
The assay is described as follows: BLI capture step; biotinylated canine IL4 on streptavidin sensor tips, fusion at 25 µg/mL. As to the method: (§1) The determine the binding affinity of C1q to canine IgG-B Fc variant 1, a biosensor binding analysis was performed. In this assay, the affinity of C1q to a fusion protein of a canine IL4 receptor ECD and IL13 receptor ECD (IL4R/IL13R) and canine IgG-B Fc wild-type (IL4R/IL13R-canine IgG-B, SEQ ID NO: 95) or to canine IgG-B Fc variant 1 (IL4R/IL13R-canine IgG-B variant 1, SEQ ID NO: 96) was tested. Briefly, canine IL4 was biotinylated. Biotinylated canine IL4 was captured on streptavidin sensor tips. Either IL4R/IL13R-canine IgG-B wild-type (25 ug/mL) or IL4R/IL13R-canine IgG-B variant 1 (25 μg/mL) were complexed to the IL4-bound biosensors. Subsequently, the complex was used to bind human C1q at 250 μg/mL (Catalog No. 204876-1MG; Sigma Aldrich). Then, the ability of human C1q to bind to either complex was measured. Reduced binding between human C1q and IL4R/IL13R-canine IgG-B variant 1 was observed when compared to IL4R/IL13R-canine IgG-B wild-type.

For assay [4], the target named is T4, human C1q (Catalog No. 204876-1MG; Sigma Aldrich) (human, UniProt P02745 23-245; P02746 28-253; P02747 29-245).
T4 construct: Bought protein
T4 sequence (P02745 23-245 limits assumed, chain 1 of 3): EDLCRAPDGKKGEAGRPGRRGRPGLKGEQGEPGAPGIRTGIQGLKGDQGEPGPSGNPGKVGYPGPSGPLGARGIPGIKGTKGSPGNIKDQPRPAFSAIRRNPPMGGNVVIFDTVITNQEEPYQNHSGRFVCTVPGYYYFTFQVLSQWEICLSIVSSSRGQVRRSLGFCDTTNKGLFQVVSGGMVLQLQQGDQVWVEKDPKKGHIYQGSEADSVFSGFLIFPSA
T4 sequence (P02746 28-253 limits assumed, chain 2 of 3): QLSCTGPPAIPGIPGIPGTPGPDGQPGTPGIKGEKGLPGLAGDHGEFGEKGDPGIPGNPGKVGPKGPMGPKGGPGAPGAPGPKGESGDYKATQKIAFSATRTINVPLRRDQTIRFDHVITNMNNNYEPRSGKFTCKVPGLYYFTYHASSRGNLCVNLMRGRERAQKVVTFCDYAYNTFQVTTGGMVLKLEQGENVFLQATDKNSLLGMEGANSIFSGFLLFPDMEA
T4 sequence (P02747 29-245 limits assumed, chain 3 of 3): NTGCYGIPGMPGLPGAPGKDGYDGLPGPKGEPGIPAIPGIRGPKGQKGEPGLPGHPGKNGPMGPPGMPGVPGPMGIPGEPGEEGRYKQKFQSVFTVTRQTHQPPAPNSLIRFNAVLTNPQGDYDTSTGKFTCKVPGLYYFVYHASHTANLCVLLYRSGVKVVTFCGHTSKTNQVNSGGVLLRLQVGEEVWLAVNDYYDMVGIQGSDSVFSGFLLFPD
The assay is described as follows: BLI; Fc fusion (25 µg/mL) captured on IL4-bound streptavidin sensors, human C1q at 250 µg/mL. The method, then:
as §1
On the technique in general: In BLI a coated tip is dipped into the sample, and binding shifts an interference pattern.

B1: mouse monoclonal antibody Clone A (antibody, IgG1, V domains shown)
VH: QVQLKESGPGLVAPSQSLSITCTISGFSLTSNGVHWVRQSPGKDLEWLVVIWSDGTTTYNSDFKSRLSISKDNSKSQVFLKMNSLQTDDTAMYYCARHYDWGYYYAMDYWGQGTSVTVSS
VL: DVVMTQTPLSLPVSLGDQASISCRSSQSLVHSNGNTYLHWYLQRPGQSPNLLIYKVSNRFSGVPDRFSGSGSGTDFTLKISRVEAEDLGVYFCSQSTHVPFTFGSGTKLEIK
notes: Hybridoma antibody; also called antibody A
As to B1, in assay [1], the “EC50 (ng/mL), H1080 Cell Functional Assay (IL6 secretion)” value is 13 ng/mL. For the same molecule, in assay [2], the binding result is given as “no binding (tested: 0.6 µg of target per lane)”.

B2: mouse monoclonal antibody Clone E (antibody, mouse IgG1, V domains shown)
VH: QVQLKESGPGLVAPSQSLSITCTISGFSLTSNGVHWVRQPPGKGLEWLVVIWSDGTTTYNSALKSRLSISKDNSKSQVFLKMNSLQTDDTAMYYCARHYDRGYYYAMDYWGQGTSVTVSS
VL: DVVMTQTPLSLPVSLGDQASISCRSSQSLVHSNGNTYFHWYLQKPGQSPKLLIYKVSNRFSGVPDRFSGSGSGTDFTLKISRVEAEDLGVYFCSQSTHAPFTFGSGTKLEIK
notes: Hybridoma antibody; also called antibody E
B2: in assay [1], the “EC50 (ng/mL), H1080 Cell Functional Assay (IL6 secretion)” value is 40 ng/mL. In assay [2], the binding result is listed as “no binding (tested: 0.6 µg of target per lane)”.

B3: IL4R/IL13R-canine IgG-B wild-type (Fc fusion)
chain: TETQPPVTNLSVSVENLCTVIWTWDPPEGASPNCTLRYFSHFDNKQDKKIAPETHRSKEVPLNERICLQVGSQCSTNESDNPSILVEKCTPPPEGDPESAVTELQCVWHNLSYMKCTWLPGRNTSPDTNYTLYYWHSSLGKILQCEDIYREGQHIGCSFALTNLKDSSFEQHSVQIVVKDNAGKIRPSFNIVPLTSHVKPDPPHIKRLFFQNGNLYVQWKNPQNFYSRCLSYQVEVNNSQTETNDIFYVEEAKCQNSEFEGNLEGTICFMVPGVLPDTLNTVRIRVRTNKLCYEDDKLWSNWSQAMSIGENTDPTGGGSGSGSVKVLHEPSCFSDYISTSVCQWKMDHPTNCSAELRLSYQLDFMGSENHTCVPENREDSVCVCSMPIDDAVEADVYQLDLWAGQQLLWSGSFQPSKHVKPRTPGNLTVHPNISHTWLLMWTNPYPTENHLHSELTYMVNVSNDNDPEDFKVYNVTYMGPTLRLAASTLKSGASYSARVRAWAQTYNSTWSDWSPSTTWLNYYEPKRENGRVPRPPDCPKCPAPEMLGGPSVFIFPPKPKDTLLIARTPEVTCVVVDLDPEDPEVQISWFVDGKQMQTAKTQPREEQFNGTYRVVSVLPIGHQDWLKGKQFTCKVNNKALPSPIERTISKARGQAHQPSVYVLPPSREELSKNTVSLTCLIKDFFPPDIDVEWQSNGQQEPESKYRTTPPQLDEDGSYFLYSKLSVDKSRWQRGDTFICAVMHEALHNHYTQESLSHSPGK
Regarding B3, the binding result in assay [3] and in assay [4] was “binds” in each case.

B4: IL4R/IL13R-canine IgG-B variant 1 (C1q binding mutant) (Fc fusion)
chain: TETQPPVTNLSVSVENLCTVIWTWDPPEGASPNCTLRYFSHFDNKQDKKIAPETHRSKEVPLNERICLQVGSQCSTNESDNPSILVEKCTPPPEGDPESAVTELQCVWHNLSYMKCTWLPGRNTSPDTNYTLYYWHSSLGKILQCEDIYREGQHIGCSFALTNLKDSSFEQHSVQIVVKDNAGKIRPSFNIVPLTSHVKPDPPHIKRLFFQNGNLYVQWKNPQNFYSRCLSYQVEVNNSQTETNDIFYVEEAKCQNSEFEGNLEGTICFMVPGVLPDTLNTVRIRVRTNKLCYEDDKLWSNWSQAMSIGENTDPTGGGSGSGSVKVLHEPSCFSDYISTSVCQWKMDHPTNCSAELRLSYQLDFMGSENHTCVPENREDSVCVCSMPIDDAVEADVYQLDLWAGQQLLWSGSFQPSKHVKPRTPGNLTVHPNISHTWLLMWTNPYPTENHLHSELTYMVNVSNDNDPEDFKVYNVTYMGPTLRLAASTLKSGASYSARVRAWAQTYNSTWSDWSPSTTWLNYYEPKRENGRVPRPPDCPKCPAPEMLGGPSVFIFPPKPKDTLLIARTPEVTCVVVDLDPEDPEVQISWFVDGKQMQTAKTQPREEQFNGTYRVVSVLPIGHQDWLKGKQFTCRVNNKALPSPIERTISKARGQAHQPSVYVLPPSREELSKNTVSLTCLIKDFFPPDIDVEWQSNGQQEPESKYRTTPPQLDEDGSYFLYSKLSVDKSRWQRGDTFICAVMHEALHNHYTQESLSHSPGK
Regarding B4, the binding result in assay [3] and in assay [4] was “binds” each time.
